Numbering of substitutions follows the chain as printed. In names and notes the source's numbering stands.
B1: Spy, wild type (natural protein)
chain: ADTTTAAPADAKPMMHHKGKFGPHQDMMFKDLNLTDAQKQQIREIMKGQRDQMKRPPLEERRAMHDIIASDTFDKVKAEAQIAKMEEQRKANMLAHMETQNKIYNILTPEQKKQFNANFEKRLTERPAAKGKMPATAE
B2: Spy Q100L (natural protein)
chain: B1 chain with Q100L
B3: Spy H96L (natural protein)
chain: B1 chain with H96L

Tests used:
[1] = target: Im7, wild type (E. coli); assay: stopped-flow fluorescence
[2] = target: Im7 L18AL19AL37AH40W (E. coli); assay: stopped-flow fluorescence
[3] = target: Im7 L18AL19AL37AH40W (E. coli)

| Binder | kobs of release of native Im7 (double mixing, chase after 6 ms) [1] | koff [1] | kon [2] | stoichiometry N [3] | fold increase in affinity (Kd) over SpyWT [2] | fold lower release rate constant (koff) than SpyWT [2] |
| --- | --- | --- | --- | --- | --- | --- |
| B1 | 141 s⁻¹ | 131 s⁻¹ | 1.2e+08 M⁻¹ s⁻¹ | 1 | – | – |
| B2 | – | – | – | – | 150 fold | 130 fold |
| B3 | – | – | – | – | 7 fold | 5 fold |

From paper PMC4947014
